Reference: the supplement of paper PMC9732359
± gives the uncertainty stated by the source.

Assay: protein stability index of a GFP-peptide fusion (yeast GPS) (PSI 1-4); higher = more stable; sorted into four equal gates, so the index is relative within each strain
Method in brief: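 Tiled 17-residue yeast protein peptides were fused downstream of GFP in a plasmid that also expresses Cherry, and the pooled library was carried in yeast. Mid-log cultures in leucine-free medium were sorted into four equal gates by GFP/Cherry fluorescence ratio, and plasmids from each gate were PCR-amplified and Illumina-sequenced, with reads assigned to strains by barcodes. The protein stability index for each peptide was each gate's read frequency times its gate number, summed.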

Row | Sequence | protein stability index (doa10∆) | protein stability index (pdr5∆) | protein stability index (san1∆) | protein stability index (ubr1∆)
1 | RPGRIDRKIEFPPPSVA [RPT6] | 3.21 ± 0.072 | 3.26 ± 0.07 | 3.05 ± 0.054 | 3.25 ± 0.048
2 | SFLFDVLKTLEYKLATY [NUT1] | 2.33 ± 0.062 | 2.18 ± 0.07 | 3 ± 0.097 | 2.03 ± 0.074
3 | AAGANVDNVWADVYAKA [RPP1B] | 3.2 ± 0.096 | 3.16 ± 0.14 | 2.77 ± 0.14 | 2.96 ± 0.12
4 | KDLVTENAYDNPLADAE [PRE4] | 3.11 ± 0.09 | 3.34 ± 0.12 | 3.32 ± 0.11 | 3.21 ± 0.063
5 | NGVVKKAAAGAGSAALK [RPO31] | 3.51 ± 0.13 | 3.11 ± 0.27 | 3.47 ± 0.12 | 
6 | GNMCRGGRMFAPTKTWR [RPL4A] | 2.92 ± 0.078 | 2.61 ± 0.12 | 3.04 ± 0.063 | 2.34 ± 0.053
7 | DFNQAFEGTDDNEEASV [BRN1] | 3.09 ± 0.14 | 3.17 ± 0.13 | 3.39 ± 0.15 | 3.53 ± 0.12
8 | KVGQFDQVLNLCLTEFE [FAS1] | 2.75 ± 0.076 | 2.97 ± 0.062 | 2.73 ± 0.06 | 3.11 ± 0.038
9 | LQEIYQTDAIKSDEAKW [RPN5] | 2.34 ± 0.09 | 2.5 ± 0.13 | 2.13 ± 0.13 | 2.16 ± 0.17
10 | LGLCCLLDVKLAIDNMY [YCG1] | 1.52 ± 0.045 | 1.51 ± 0.04 | 1.78 ± 0.067 | 1.88 ± 0.044
11 | SSLMNGLGYVFEFQYLT [SRB5] | 2.25 ± 0.095 | 1.83 ± 0.085 | 1.64 ± 0.084 | 3.19 ± 0.073
12 | ENSTSNSKPEKSSDSND [YLR335W/NUP2] | 3.24 ± 0.14 | 3.32 ± 0.16 | 3.31 ± 0.071 | 3.4 ± 0.085
13 | PVKSIRARLKGKEGRIR [RPO21] | 3.36 ± 0.091 | 3.22 ± 0.11 | 3.33 ± 0.085 | 2.94 ± 0.079
14 | SLRILAKLSERSNGSVA [YJL039C/NUP192] | 2.5 ± 0.048 | 2.27 ± 0.04 | 1.93 ± 0.067 | 2.42 ± 0.043
15 | FVPNDGCLNFVDENDEV [RPS23A] | 2.94 ± 0.063 | 3.04 ± 0.071 | 2.78 ± 0.05 | 2.65 ± 0.055
16 | GSGAANENPYNNGVSNL [COR1] | 3.02 ± 0.17 | 2.94 ± 0.14 | 3.15 ± 0.11 | 2.79 ± 0.17
17 | ETKWDDADEKSSNLYET [YJR042W/NUP85] |  | 3.22 ± 0.15 | 3.02 ± 0.13 | 3.25 ± 0.097
18 | SLFELIVPIFQLISAVL [YJL039C/NUP192] | 1.86 ± 0.068 | 1.75 ± 0.051 | 1.7 ± 0.097 | 1.85 ± 0.037
19 | ENLADLDYQIGNSESKV [LIN1] | 3.23 ± 0.099 | 3.42 ± 0.11 | 3.06 ± 0.12 | 3.42 ± 0.1
20 | GTAIGAIGAQSIGEPGT [RPO31] | 3.12 ± 0.11 | 3.13 ± 0.092 | 2.61 ± 0.14 | 3.15 ± 0.059
21 | LILRDFLNNGEVDSASD [RPN3] | 3.07 ± 0.19 | 2.89 ± 0.17 | 2.63 ± 0.23 | 3.2 ± 0.29
22 | ESLRGILHVRAQYCYKN [SRP72] | 1.94 ± 0.1 | 2.36 ± 0.11 | 2.18 ± 0.22 | 2.13 ± 0.062
23 | GAVGLKDLTLCRYSCLA [YCS4] | 2.4 ± 0.095 | 2.42 ± 0.1 | 1.94 ± 0.12 | 2.13 ± 0.085
24 | MQGKITKVLNMKPSEIL [SMC2] | 2.48 ± 0.25 | 2.88 ± 0.18 |  | 
25 | VQHDQILVMETSEEQTK [SWP82] | 2.99 ± 0.092 | 2.91 ± 0.11 | 2.94 ± 0.047 | 2.85 ± 0.076

Row | Sequence | protein stability index (doa10∆) | protein stability index (pdr5∆) | protein stability index (san1∆) | protein stability index (ubr1∆)
26 | LTSPAFGPHVDVNDVLT [GRR1] | 3.4 ± 0.085 | 3.23 ± 0.062 | 3.35 ± 0.063 | 3.27 ± 0.056
27 | AGLDEDGKGAVYSFDPV [PRE7] | 2.58 ± 0.29 | 3 ± 0.2 |  | 2.87 ± 0.15
28 | VENELLQVDVDIAGQRD [RRP42] | 1.36 ± 0.25 | 2.12 ± 0.28 |  | 1.14 ± 0.19
29 | TRISSQFEKSRKVSGPR [RET1] | 2.94 ± 0.27 | 2.92 ± 0.18 | 2.92 ± 0.098 | 2.75 ± 0.2
30 | IVNVLSKCLNLISDSNI [SWI3] | 2.05 ± 0.043 | 1.77 ± 0.038 | 1.65 ± 0.073 | 2 ± 0.029
31 | DRDESSPYAAMLAAQDV [RPS14A] | 3.02 ± 0.088 | 3.21 ± 0.072 | 2.55 ± 0.09 | 3.27 ± 0.078
32 | KLLAISKFNNADDVFTG [RPC31] | 3.03 ± 0.15 | 2.9 ± 0.2 | 2.92 ± 0.13 | 2.57 ± 0.12
33 | YVSQIRKHKRVSPNAAP [YAR002W/NUP60] | 1.95 ± 0.084 | 1.64 ± 0.053 | 2.53 ± 0.085 | 2.29 ± 0.081
34 | MNFISKEEFIMMVNISV [PCI8] | 1.41 ± 0.059 | 1.25 ± 0.046 | 1.32 ± 0.16 | 1.37 ± 0.063
35 | DNEQNLESDFVTGASQF [PRE2] | 2.92 ± 0.095 | 3.33 ± 0.098 | 3.23 ± 0.077 | 2.96 ± 0.076
36 | INSPMPQQAQMQQAQFQ [SNF2] | 2.98 ± 0.093 | 2.98 ± 0.089 | 3.11 ± 0.1 | 2.98 ± 0.083
37 | EVIGYIAAGTYGKVYKA [SSN3] | 2.01 ± 0.05 | 2.25 ± 0.042 | 2.17 ± 0.069 | 1.9 ± 0.045
38 | EIKVGKQRFQGCNNLIK [ARP9] | 2.76 ± 0.16 | 3.06 ± 0.13 | 3.39 ± 0.092 | 3.34 ± 0.12
39 | MDYHFIFSYLQFTSSLF [RGR1] | 2.08 ± 0.046 | 1.39 ± 0.043 | 1.25 ± 0.076 | 1.21 ± 0.047
40 | TSFDIKREGRNELQEER [POP6] | 3.46 ± 0.12 | 3.02 ± 0.15 | 3.73 ± 0.11 | 3.27 ± 0.07
41 | LIGCIDEAKDFIVSGTA [PUP3] | 2.59 ± 0.058 | 2.67 ± 0.061 | 2.66 ± 0.053 | 3.01 ± 0.044
42 | FTGDFLRRVEERFTKSK [FAS1] | 3.29 ± 0.14 | 3.6 ± 0.16 | 3.19 ± 0.083 | 2.78 ± 0.27
43 | QIMQNPTHYKIPAWFLN [RPS18A] | 2.02 ± 0.072 | 1.99 ± 0.071 | 1.66 ± 0.084 | 1.6 ± 0.048
44 | EEKPDVTYSDVGGCKDQ [RPT1] | 3.48 ± 0.16 | 3.65 ± 0.19 | 3.04 ± 0.23 | 3.41 ± 0.11
45 | STLTLSDSEDSDAKEQH [ESC2] |  |  |  | 1.06 ± 0.13
46 | KLAAIVEIIDQKKVLID [RPL14A] | 2.8 ± 0.18 | 2.69 ± 0.088 | 2.91 ± 0.072 | 2.73 ± 0.062
47 | ATDPVAAKPDNLANFSN [SWP82] | 3.27 ± 0.077 | 3.18 ± 0.084 | 3.21 ± 0.051 | 3.26 ± 0.057
48 | VEYLTRYVAGVQQRYTQ [PRE6] | 1.47 ± 0.065 | 1.89 ± 0.086 | 1.65 ± 0.09 | 1.66 ± 0.1
49 | WREQLRNRDIALFQPPN [ROX3] | 2.31 ± 0.066 | 2.95 ± 0.066 | 2.73 ± 0.059 | 1.96 ± 0.047
50 | INYLLTLAITTVTNSKF [RPN2] | 2.22 ± 0.062 | 2.91 ± 0.078 | 2.1 ± 0.074 | 2.67 ± 0.067

Row | Sequence | protein stability index (doa10∆) | protein stability index (pdr5∆) | protein stability index (san1∆) | protein stability index (ubr1∆)
51 | IQSKRLRNKIAGYTTHL [RPS17A] | 3.16 ± 0.1 | 3.41 ± 0.088 | 3.23 ± 0.065 | 3.36 ± 0.072
52 | VQVKVLGKYEFSKILPA [ESC2] | 2.03 ± 0.15 | 1.99 ± 0.14 |  | 1.83 ± 0.19
53 | PQIVVPDAQNELPKFIL [DIS3] | 2.9 ± 0.049 | 3.09 ± 0.06 | 2.92 ± 0.043 | 2.98 ± 0.077
54 | EFDSDDDDISDDEEDEI [RPN4] | 3.47 ± 0.1 | 3.28 ± 0.09 | 3.14 ± 0.082 | 3.31 ± 0.098
55 | RVGVVSILEAGDSDILT [RPL30] | 3.1 ± 0.057 | 2.97 ± 0.074 | 2.98 ± 0.07 | 3.03 ± 0.058
56 | ENEEFITFLQTLYIGNT [ECM29] | 2.06 ± 0.055 | 2.42 ± 0.036 | 2.38 ± 0.11 | 2.22 ± 0.066
57 | QENGTIFRGSLIGCIPY [YDL088C/ASM4] | 2.59 ± 0.052 | 2.57 ± 0.052 | 2.48 ± 0.061 | 2.5 ± 0.038
58 | PTLFDLAFNYITYDKQE [SRP68] | 2.39 ± 0.064 | 1.72 ± 0.064 | 1.77 ± 0.081 | 1.54 ± 0.059
59 | TVHKTFEGNVATKAING [PRP8] | 2.85 ± 0.08 | 2.22 ± 0.062 | 1.85 ± 0.065 | 2.71 ± 0.062
60 | KRFMNTSQNPQRDAEIS [BRR2] | 3.04 ± 0.076 | 3.03 ± 0.085 | 3.12 ± 0.1 | 2.95 ± 0.059
61 | NGTLIGCVSYSPAALKQ [YMR153W/NUP53] | 1.85 ± 0.06 | 2.27 ± 0.086 | 1.83 ± 0.097 | 2.26 ± 0.045
62 | EEIKTVDPASAPNHSPE [RRP6] | 3.01 ± 0.096 | 2.96 ± 0.072 | 3.27 ± 0.068 | 3.19 ± 0.056
63 | IELKTDWVRFLALALGI [RPN1] | 1.38 ± 0.13 | 1.37 ± 0.077 | 1.41 ± 0.12 | 1.13 ± 0.067
64 | FTVNVLYPDSSSFKKNL [RPN3] | 2.08 ± 0.057 | 2.59 ± 0.067 | 2.55 ± 0.063 | 2.44 ± 0.057
65 | TDVKLTLPQPRLNKLNS [SMD1] | 2.73 ± 0.066 | 2.79 ± 0.059 | 2.1 ± 0.071 | 2.73 ± 0.059
66 | IREIDVAGGKKALAIFV [RPS7A] | 2.29 ± 0.089 | 1.75 ± 0.11 | 1.49 ± 0.17 | 1.77 ± 0.066
67 | DDFMHSETREKELESID [RPB4] |  |  | 2.74 ± 0.12 | 3.2 ± 0.19
68 | GMVKLNEYPVADAVTKD [REC8] |  | 2.87 ± 0.2 | 3.28 ± 0.043 | 3.36 ± 0.052
69 | IKEIINASKVISTPIIN [RPO31] | 3.08 ± 0.11 | 1.88 ± 0.17 | 1.03 ± 0.18 | 1.53 ± 0.25
70 | EHKQLVAEIVQNVISLG [RPC82] | 2.2 ± 0.067 | 1.46 ± 0.13 | 2.16 ± 0.25 | 1.8 ± 0.1
71 | MAKDNLTNLLSQLNIQL [SRP72] | 2.99 ± 0.077 | 3.13 ± 0.084 | 3.15 ± 0.074 | 2.96 ± 0.061
72 | GADVTNTTQDNGGDKEL [YCS4] | 3.18 ± 0.12 | 3.19 ± 0.083 | 3.1 ± 0.065 | 3.26 ± 0.074
73 | DVVEYLDKVINKELPIN [RPN8] | 2.82 ± 0.22 | 3 ± 0.2 |  | 3.12 ± 0.19
74 | VFDKDGNYIKTENATEN [LIN1] |  |  |  | 3.72 ± 0.28
